The test system of data set [1] is PDGF-R β expressed on the cell membrane. Description: Flow cytometry binding to CHO PDGF-R β transfectant cells. Also noted: species or system human. The note with it: 0.1-1 μg/ml antibody; CHO PDGF-R β transfectants vs untransfected CHO. As to the method:
The cells were washed once in cold PBS and resuspended in 50 μl of PBS containing 10 μg/ml FITC-conjugated goat anti-mouse IgG and incubated for 30 min. After another wash, the cells were fixed by resuspension in 0.25 ml of paraformaldehyde in PBS, and analyzed for fluorescence by flow cytometry on a FACScan (Becton Dickinson).
For orientation: In flow cytometry, cells or beads pass a laser one at a time.

Data set [2] in a line: Pharmacokinetics in rats (plasma antibody by ELISA). It is filed as in vivo, rat. As to the method:
In preliminary experiments to determine the pharmacokinetics of muM4TS.11 in rats, an initial dose of antibody was injected and blood samples obtained at 1, 2, 3, 6, 12, 24, 36, and 48 hr. Antibody levels in plasma were measured by ELISA. The half-life of the antibody in rats was approximately 1 day. […] (In humans, proportionally smaller and less frequent doses are likely to be sufficient for a humanized anti-PDGF-R β antibody such as HuM4TS.11 or HuM4TS.22 to be effective, because of the expected longer half-life in humans and higher affinity for human PDGF-R β of these non-immunogenic HuAbs).
(In general: ELISA stands for enzyme-linked immunosorbent assay.)

For data set [3], the system named is intima of left common carotid artery after balloon injury. Put plainly: Rat carotid balloon injury model, intimal thickening. The format is in vivo. The following applies: 21 days after injury. The source says:
To perform the vascular injury, under sterile conditions and after general anesthesia the left common carotid arteries of S-D rats were exposed. Anesthesia was induced with ketamine and xilaxine by IP injection. Additional anesthesia was given at half a dose every forty-five minutes. Through a midline neck incision the left common, external and internal carotid arteries were exposed. A 2F Fogarty balloon catheter was introduced in the left external carotid artery. The balloon was inflated sufficiently to generate slight resistance and withdrawn 3 times to consistently produce endothelial denudation of the entire length of the left common carotid artery (LCCA), thus simulating vascular injury after balloon angioplasty in human patients. Upon removal of the catheter, the left external carotid artery was ligated with 3.0 silk. The skin was closed with surgical wound clips. […]
For measurement of intimal thickening, the left common carotid arteries were sectioned every 3 mm, from the proximal to the distal end. […] Cross-sectional areas for lumen, intima and media of the artery were determined as a mean of the 3 segments with the greatest intimal thickness. […] Differences between placebo or control groups and treated groups were analyzed for statistical significance by analysis of variance and a two-tailed, unpaired Student's t test […]

Data set [4] concerns PDGF-R β. Description: Competition with 125I-labeled murine antibody tracer on Sp2/0 PDGF-R β transfectant cells. It is filed as binding, human. The note with it: calculated from competitive binding data; Sp2/0 PDGF-R β transfectants. As to the method: To assess the ability of HuM4TS.22 to compete with muM4TS.22 for receptor binding, increasing concentrations of the two antibodies were respectively incubated on ice for one hour with Sp2/0 PDGF-R β transfectant cells and a fixed amount of tracer ^125 I-labeled muAb. The sample tubes were processed as in the blocking experiment just described.
To assess the ability of HuM4TS.11 to compete with the muAb for receptor binding, increasing concentrations of the two antibodies were respectively incubated on ice for one hour with Sp2/0 PDGF-R β transfectant cells and a fixed amount of tracer ^125 I-labeled M4TS.11. The sample tubes were processed as in the blocking experiment described. […] The binding affinities calculated from the data were: Ka =5×10^8 M^-1 for the muAb and 3×10^7 M^-1 for the HuAb.

The test system of data set [5] is CHO transfectant cell line expressing PDGF-R β (CHO C4). Put plainly: Inhibition of PDGF BB-induced proliferation (3H-thymidine) of CHO C4 cells. The format is cell-based, Chinese hamster. The procedure: To determine the ability of muM4TS.11 and muM4TS.22 to block PDGF-mediated proliferation, a CHO transfectant cell line expressing PDGF-R β (CHO C4) was generated, as described above. Proliferation of this line, as measured by incorporation of ^3 H-thymidine by DNA synthesis, is stimulated several-fold by PDGF BB. The CHO PDGF-R β transfectants were plated in a 96-well tissue culture plate at about 50,000 cells/well in Ham's F-12+10% FCS and incubated for 1-2 days. The medium was removed, and the cells were washed once with serum-free medium (Ham's F-12+1 mg/ml BSA) and incubated in this media for 1-2 days to put them in a quiescent state. The appropriate amount of antibody in serum-free medium was added, and after 1-3 hours, 50 ng/ml PDGF BB was added. After overnight incubation, 1 μCi ^3 H-thymidine was added, and after a final 4 hour incubation, the cells were harvested using a PHD cell harvester (Cambridge Technology) and analyzed with a scintillation counter.

For data set [6], the system named is human primary fibroblast cell line AG1523B. Put plainly: Inhibition of PDGF BB-stimulated proliferation of AG1523B fibroblasts. The note with it: 300 ng/ml PDGF BB. The format is cell-based.

“Also recorded” adds a separate entry of the source.

B1: muM4TS.11: murine monoclonal antibody to PDGF-R β, variable regions SEQ ID NOS:10 and 12; epitope in fourth extracellular domain (antibody, V domains shown)
VL: METETLLLWVLLLWVPGSTGDIVLTQSPPSLAVSLGQRATISCRASESVDSYGNSFMHWYQQKPGQPPKLLIYRASNLESGIPARFSGGGSRTDFTLTINPVEADDVATYYCQQSNEDPPTFGGGTKLEIK
VH: MERHWIFLFLFSVTAGVHSQVQLQQSGAEVAKPGASVKMSCKASGYTFTNCWMHWVKQRPGQGLEWIGYINPTTGYSEYNQNFKDKATLTADKSSNTAYIQLSSLTSEDSAVYYCTSNYGHYDWFANWGQGTLVT
Turning to B1, the “specific binding to membrane PDGF-R β by flow cytometry” value in data set [1] was “specifically bound to CHO PDGF-R β transfectant cells but not to untransfected CHO cells”. In addition, the “time antibody level stays above the in vitro inhibitory concentration” value in data set [2] (4 mg bolus, then 2 mg IV every 24 hr for 4 days) was “at least 7 days”. Further, in data set [2] (preliminary experiments, plasma), the “half-life of the antibody” value is reported as “approximately 1 day”. For the same molecule, the “less thickening of the artery intima than placebo or control groups” value in data set [3] (high dose: 4 mg bolus, then 2 mg IV every 24 hr for 4 days) was “approximately 60%”; in data set [3] (low dose: 10% of the high-dose regimen), “approximately 40%”. Further, the “binding affinity Ka” value in data set [4] is 5e+08 M⁻¹. Also, in data set [5], the “inhibition of PDGF-mediated proliferation compared with another antibody” value is “about two times more effectively than with HuM4TS.11”. The “inhibition of PDGF BB-induced proliferation” value in data set [5] (50 ng/ml PDGF BB, sufficient antibody concentration) is “completely inhibited proliferation of the cells induced by PDGF BB; also recorded: almost completely inhibited the stimulation of proliferation by PDGF BB”. The “inhibition of stimulation of proliferation by PDGF BB” value in data set [6] is reported as “effectively inhibited the stimulation of proliferation by PDGF BB”.
